Data from US20160264649A1.

Experiments:
Assay in all cases: cell-based or functional assay
[1] = biological target: HIV-1 92RW008 Env (HIV-1)
[2] = biological target: HIV-1 92TH021 Env (HIV-1)
[3] = biological target: HIV-1 92UG031 Env (HIV-1)
[4] = biological target: HIV-1 92UG037 Env (HIV-1)
[5] = biological target: HIV-1 92WR009 Env (HIV-1)
[6] = biological target: HIV-1 92WR020 Env (HIV-1)
[7] = biological target: HIV-1 92WR021 Env (HIV-1)
[8] = biological target: HIV-1 92WR024 Env (HIV-1)
[9] = biological target: HIV-1 93UG077 Env (HIV-1)
[10] = biological target: HIV-1 93WR029 Env (HIV-1)
[11] = biological target: HIV-1 94KE105 Env (HIV-1)
[12] = biological target: HIV-1 94UG103 Env (HIV-1)
[13] = biological target: HIV-1 CMU02 Env (HIV-1)
[14] = biological target: HIV-1 MGRM-A-001 Env (HIV-1)
[15] = biological target: HIV-1 MGRM-A-003 Env (HIV-1)
[16] = biological target: HIV-1 MGRM-A-004 Env (HIV-1)
[17] = biological target: HIV-1 MGRM-A-005 Env (HIV-1)
[18] = biological target: HIV-1 MGRM-A-006 Env (HIV-1)
[19] = biological target: HIV-1 MGRM-A-007 Env (HIV-1)
[20] = biological target: HIV-1 MGRM-A-008 Env (HIV-1)
[21] = biological target: HIV-1 MGRM-A-009 Env (HIV-1)
[22] = biological target: HIV-1 MGRM-A-010 Env (HIV-1)
[23] = biological target: HIV-1 MGRM-A-011 Env (HIV-1)
[24] = biological target: HIV-1 MGRM-A-012 Env (HIV-1)
[25] = biological target: HIV-1 MGRM-A-013 Env (HIV-1)
[26] = biological target: HIV-1 MGRM-A-014 Env (HIV-1)
[27] = biological target: HIV-1 MGRM-AE-001 Env (HIV-1)
[28] = biological target: HIV-1 MGRM-AE-002 Env (HIV-1)
[29] = biological target: HIV-1 MGRM-AE-003 Env (HIV-1)
[30] = biological target: HIV-1 MGRM-AE-004 Env (HIV-1)
[31] = biological target: HIV-1 MGRM-AE-005 Env (HIV-1)
[32] = biological target: HIV-1 MGRM-AE-006 Env (HIV-1)
[33] = biological target: HIV-1 MGRM-AE-007 Env (HIV-1)
[34] = biological target: HIV-1 MGRM-AE-008 Env (HIV-1)
[35] = biological target: HIV-1 MGRM-AG-002 Env (HIV-1)
[36] = biological target: HIV-1 MGRM-AG-009 Env (HIV-1)
[37] = biological target: HIV-1 MGRM-AG-011 Env (HIV-1)
[38] = biological target: HIV-1 MGRM-AG-012 Env (HIV-1)
[39] = biological target: HIV-1 VLGCA1 Env (HIV-1)
[40] = biological target: HIV-1 92WR026 Env (HIV-1)
[41] = biological target: HIV-1 MGRM-A-002 Env (HIV-1)
[42] = biological target: HIV-1 MGRM-AG-001 Env (HIV-1)
[43] = biological target: HIV-1 MGRM-AG-003 Env (HIV-1)
[44] = biological target: HIV-1 MGRM-AG-005 Env (HIV-1)
[45] = biological target: HIV-1 MGRM-AG-006 Env (HIV-1)
[46] = biological target: HIV-1 MGRM-AG-008 Env (HIV-1)
[47] = biological target: HIV-1 MGRM-AG-013 Env (HIV-1)

Substance: 4838_L06 (PGT-121) (antibody)
- IC50 [1]: 0.003 µg/mL
- IC50 [2]: > 50 µg/mL
- IC50 [3]: > 50 µg/mL
- IC50 [4]: 0.031 µg/mL
- IC50 [5]: 1.74 µg/mL
- IC50 [6]: 0.004 µg/mL
- IC50 [7]: 0.009 µg/mL
- IC50 [8]: > 50 µg/mL
- IC50 [9]: 0.019 µg/mL
- IC50 [10]: > 50 µg/mL
- IC50 [11]: 0.029 µg/mL
- IC50 [12]: 2.52 µg/mL
- IC50 [13]: > 50 µg/mL
- IC50 [14]: > 50 µg/mL
- IC50 [15]: 0.435 µg/mL
- IC50 [16]: > 50 µg/mL
- IC50 [17]: > 50 µg/mL
- IC50 [18]: 0.396 µg/mL
- IC50 [19]: > 50 µg/mL
- IC50 [20]: > 50 µg/mL
- IC50 [21]: 0.006 µg/mL
- IC50 [22]: 2.44 µg/mL
- IC50 [23]: > 50 µg/mL
- IC50 [24]: 0.092 µg/mL
- IC50 [25]: 0.387 µg/mL
- IC50 [26]: 0.003 µg/mL
- IC50 [27]: > 50 µg/mL
- IC50 [28]: > 50 µg/mL
- IC50 [29]: > 50 µg/mL
- IC50 [30]: > 50 µg/mL
- IC50 [31]: > 50 µg/mL
- IC50 [32]: > 50 µg/mL
- IC50 [33]: > 50 µg/mL
- IC50 [34]: > 50 µg/mL
- IC50 [35]: > 50 µg/mL
- IC50 [36]: 0.08 µg/mL
- IC50 [37]: > 50 µg/mL
- IC50 [38]: > 50 µg/mL
- IC50 [39]: > 50 µg/mL

Substance: 4858_P08 (PGT-123) (antibody)
- IC50 [1]: 0.003 µg/mL
- IC50 [2]: > 50 µg/mL
- IC50 [3]: > 50 µg/mL
- IC50 [4]: 0.023 µg/mL
- IC50 [5]: 15.7 µg/mL
- IC50 [6]: 0.002 µg/mL
- IC50 [7]: 0.005 µg/mL
- IC50 [8]: > 50 µg/mL
- IC50 [40]: 0.012 µg/mL
- IC50 [9]: 0.028 µg/mL
- IC50 [10]: > 50 µg/mL
- IC50 [11]: 0.024 µg/mL
- IC50 [12]: 0.678 µg/mL
- IC50 [13]: > 50 µg/mL
- IC50 [14]: > 50 µg/mL
- IC50 [41]: 0.011 µg/mL
- IC50 [15]: 0.495 µg/mL
- IC50 [16]: > 50 µg/mL
- IC50 [17]: > 50 µg/mL
- IC50 [18]: > 50 µg/mL
- IC50 [19]: > 50 µg/mL
- IC50 [20]: > 50 µg/mL
- IC50 [21]: 0.004 µg/mL
- IC50 [22]: 0.705 µg/mL
- IC50 [23]: > 50 µg/mL
- IC50 [24]: 0.192 µg/mL
- IC50 [25]: 0.565 µg/mL
- IC50 [26]: 0.003 µg/mL
- IC50 [27]: > 50 µg/mL
- IC50 [28]: > 50 µg/mL
- IC50 [29]: > 50 µg/mL
- IC50 [30]: > 50 µg/mL
- IC50 [31]: > 50 µg/mL
- IC50 [32]: > 50 µg/mL
- IC50 [33]: > 50 µg/mL
- IC50 [34]: > 50 µg/mL
- IC50 [42]: 2.51 µg/mL
- IC50 [35]: > 50 µg/mL
- IC50 [43]: > 50 µg/mL
- IC50 [44]: 0.149 µg/mL
- IC50 [45]: 0.014 µg/mL
- IC50 [46]: 19.2 µg/mL
- IC50 [36]: 0.073 µg/mL
- IC50 [37]: > 50 µg/mL
- IC50 [38]: > 50 µg/mL
- IC50 [47]: 3.37 µg/mL
- IC50 [39]: > 50 µg/mL

Substance: 4877_D15 (PGT-122) (antibody)
- IC50 [1]: 0.003 µg/mL
- IC50 [2]: > 50 µg/mL
- IC50 [3]: > 50 µg/mL
- IC50 [4]: 0.068 µg/mL
- IC50 [5]: 42.4 µg/mL
- IC50 [6]: 0.009 µg/mL
- IC50 [7]: 0.021 µg/mL
- IC50 [8]: > 50 µg/mL
- IC50 [40]: 0.036 µg/mL
- IC50 [9]: 0.084 µg/mL
- IC50 [10]: > 50 µg/mL
- IC50 [11]: 0.056 µg/mL
- IC50 [12]: 2.04 µg/mL
- IC50 [13]: > 50 µg/mL
- IC50 [14]: > 50 µg/mL
- IC50 [41]: 0.017 µg/mL
- IC50 [15]: 3.79 µg/mL
- IC50 [16]: > 50 µg/mL
- IC50 [17]: > 50 µg/mL
- IC50 [18]: > 50 µg/mL
- IC50 [19]: > 50 µg/mL
- IC50 [20]: > 50 µg/mL
- IC50 [21]: 0.012 µg/mL
- IC50 [22]: 2.51 µg/mL
- IC50 [23]: > 50 µg/mL
- IC50 [24]: 0.257 µg/mL
- IC50 [25]: 2.47 µg/mL
- IC50 [26]: 0.007 µg/mL
- IC50 [27]: > 50 µg/mL
- IC50 [28]: > 50 µg/mL
- IC50 [29]: > 50 µg/mL
- IC50 [30]: > 50 µg/mL
- IC50 [31]: > 50 µg/mL
- IC50 [32]: > 50 µg/mL
- IC50 [33]: > 50 µg/mL
- IC50 [34]: > 50 µg/mL
- IC50 [42]: 14.5 µg/mL
- IC50 [35]: > 50 µg/mL
- IC50 [43]: 43.7 µg/mL
- IC50 [44]: 33.9 µg/mL
- IC50 [45]: 0.028 µg/mL
- IC50 [46]: > 50 µg/mL
- IC50 [36]: 0.128 µg/mL
- IC50 [37]: > 50 µg/mL
- IC50 [38]: > 50 µg/mL
- IC50 [47]: 0.521 µg/mL
- IC50 [39]: > 50 µg/mL

Substance: 5123_A06 (PGT-125) (antibody)
- IC50 [1]: 0.004 µg/mL
- IC50 [2]: 0.006 µg/mL
- IC50 [3]: > 50 µg/mL
- IC50 [4]: 0.005 µg/mL
- IC50 [5]: 0.144 µg/mL
- IC50 [6]: 0.004 µg/mL
- IC50 [7]: 0.005 µg/mL
- IC50 [8]: 35.5 µg/mL
- IC50 [40]: 0.007 µg/mL
- IC50 [9]: 0.012 µg/mL
- IC50 [10]: > 50 µg/mL
- IC50 [11]: 0.004 µg/mL
- IC50 [12]: 0.008 µg/mL
- IC50 [13]: > 50 µg/mL
- IC50 [14]: 12.4 µg/mL
- IC50 [41]: 0.013 µg/mL
- IC50 [15]: > 50 µg/mL
- IC50 [16]: > 50 µg/mL
- IC50 [17]: > 50 µg/mL
- IC50 [18]: > 50 µg/mL
- IC50 [19]: > 50 µg/mL
- IC50 [20]: > 50 µg/mL
- IC50 [21]: 0.009 µg/mL
- IC50 [22]: 0.004 µg/mL
- IC50 [23]: > 50 µg/mL
- IC50 [24]: 0.177 µg/mL
- IC50 [25]: 0.014 µg/mL
- IC50 [26]: 13.9 µg/mL
- IC50 [27]: 2.95 µg/mL
- IC50 [28]: > 50 µg/mL
- IC50 [29]: 0.092 µg/mL
- IC50 [30]: > 50 µg/mL
- IC50 [31]: 0.01 µg/mL
- IC50 [32]: 0.009 µg/mL
- IC50 [33]: 0.876 µg/mL
- IC50 [34]: > 50 µg/mL
- IC50 [42]: > 50 µg/mL
- IC50 [35]: > 50 µg/mL
- IC50 [43]: > 50 µg/mL
- IC50 [44]: > 50 µg/mL
- IC50 [45]: 0.008 µg/mL
- IC50 [46]: > 50 µg/mL
- IC50 [36]: 0.026 µg/mL
- IC50 [37]: > 50 µg/mL
- IC50 [38]: > 50 µg/mL
- IC50 [47]: 0.004 µg/mL
- IC50 [39]: 0.078 µg/mL
